Data set [1] can be described thus: Cyprotex Plasma Stability assay, mouse plasma. The data set is classed as in vitro ADME. Here is the method:
To determine whether cytotoxic PDCs are tolerated in vivo, C57BL/6 mice were dosed in the following manner: PDC-SM2 was dosed on days 0, 3 and 7 at dose levels of 0.5 mg/kg, 1.0 mg/kg, or 2.0 mg/kg; Payload alone was dosed on day 0 only at 0.25 mg/kg, 0.4 mg/kg, or 0.5 mg/kg; vehicle was dosed on day 0, 3 and 7. […] Plasma stability was measured using Cyprotex’s Plasma Stability assay. The samples were at a concentration of 1 µM and were incubated at 0, 15, 30, 60 and 120 minutes. A positive control compound which undergoes degradation in plasma was used. The percent of the compound remaining at each incubation time point was measured.

Data set [2] is described as follows: Cyprotex Plasma Stability assay, human plasma. The data set is classed as in vitro ADME. Here is the method: To determine whether cytotoxic PDCs are tolerated in vivo, C57BL/6 mice were dosed in the following manner: PDC-SM2 was dosed on days 0, 3 and 7 at dose levels of 0.5 mg/kg, 1.0 mg/kg, or 2.0 mg/kg; Payload alone was dosed on day 0 only at 0.25 mg/kg, 0.4 mg/kg, or 0.5 mg/kg; vehicle was dosed on day 0, 3 and 7. […] Payload dose of 0.5 mg/kg was not tolerated, two mice died by day 4 following a single infusion and all mice were sacrificed on day 5 (FIG. 5). […] Plasma stability was measured using Cyprotex’s Plasma Stability assay. The samples were at a concentration of 1 µM and were incubated at 0, 15, 30, 60 and 120 minutes. A positive control compound which undergoes degradation in plasma was used. The percent of the compound remaining at each incubation time point was measured. […] Overall, PDCs offer a novel and unique approach to targeting small molecules to tumor cells.

Data set [3] relates to HCC70 triple negative breast cancer (TNBC) xenografts. Description: In vivo efficacy in TNBC xenograft model. On the set-up: species or system R2G2 mice. How it is done: In vivo efficacy was further assessed in R2G2 mice bearing HCC70 triple negative breast cancer (TNBC) xenografts. Three doses (1 mg/kg) given once, twice or 3 times per week for 2 weeks of CLR2000045 were assessed. CLR2000045 was administered systemically by injection of the tail vein. Each group contained 10 mice. Tumor volume was monitored for efficacy and body weight for tolerability. Survival was also monitored.
The study was initiated when group mean tumor volume reached ~200 mm^3 (Day 4). CLR2000045 was dosed IV at the following doses: 1 mg/kg on either day 5 and 12 or day 5, 8, 12 and 15 or day 5, 7, 9, 12, 14, and 16. […] Changes in body weight post treatment were measured in the (HCC70) mouse xenograft model (FIG. 11A and FIG. 11B).

Data set [4] deals with normal human dermal fibroblasts (NHDF) cells. Nature of the data set: In vitro uptake of CLR2000045, LC/MS/MS. The data set is classed as cell-based. As to conditions: 1 µM. How it is done:
(§1) In vitro uptake of CLR2000045 was assessed using MCF-7 breast cancer cells and normal human dermal fibroblasts (NHDF) cells and was measured via LC/MS/MS. The breast cancer cells were maintained in minimum essential medium supplemented with 10% FBS. All cells were maintained at 37° C. and 5% CO2. Cells were incubated with 1 µM of drug and reported values were the average of triplicate assessments. In vitro cytotoxicity was determined by Cell Titer-Glo® assay using MCF-7 breast cancer cells and Hs578T triple negative breast cancer cells.

In data set [5] the test system is MCF-7 breast cancer cells. As to conditions: FIG. 7.
Experimental: The breast cancer cells were maintained in minimum essential medium supplemented with 10% FBS. All cells were maintained at 37° C. and 5% CO2. […] In vitro cytotoxicity was determined by Cell Titer-Glo® assay using MCF-7 breast cancer cells and Hs578T triple negative breast cancer cells.
Data set [6] deals with Hs578T triple negative breast cancer cells. Description: In vitro cytotoxicity, Cell Titer-Glo assay. The following applies: FIG. 7. The data set is classed as cell-based. How it is done: as §1
Between 24 and 48 hours a steady state between uptake and release of the warhead was achieved (FIG. 6). […] Half maximal inhibitory concentration (IC50) was measured in the cell lines (TABLE 2). Plasma stability of CLR2000045 was also measured (TABLE 3).

For data set [7], the system named is MCF-7 breast cancer cells. Nature of the data set: In vitro uptake and release of CLR2000045, LC/MS/MS. Format: cell-based. How it is done: as §1
The subject of data set [8] is HCT 116 xenografts. Description: In vivo efficacy in colorectal cancer xenograft model. The following applies: 10 mg/kg on day 1 and 4. On the set-up: species or system athymic nude mice. How it is done: CLR180099 was administered intravenously (IV) to healthy C57BL/6 mice to determine the maximum tolerated dose (MTD) as compared to the FLV molecule alone. The vehicle used to administer CLR180099 was PBS in this case, however any pharmaceutically suitable vehicle may be used. Each group contained 5 mice. In vivo efficacy was assessed in athymic nude mice bearing HCT 116 xenografts. The mice were flank models which were developed by injecting the hind flank of the mice with about 1x10^6 of the cells resuspended in […] of 1.2% methylcellulose. The study was initiated when group mean tumor volume reached about 120 mm^3. Tumor volume was measured using calipers - measurements of the length, width, and depth of the tumor were used to calculate the tumor volume. Two doses (2 mg/kg given 2 times or 2 mg/kg given 3 times) of CLR180099 were assessed. Each group contained 10 mice. Tumor volume was monitored for efficacy and body weight for tolerability. Total conjugated CLR180099 and free FLV were determined via mass spectrometry.
The study was initiated when group mean tumor volume reached -120 mm^3 (Day 1). CLR180099 was dosed IV at 2 mg/kg on either day 1 and 4 or day 1, 3 and 5. Docetaxel was dosed at 10 mg/kg on day 1 and 4. […] Five mice per group were dosed at each dose level. Both PDCs were tolerated up to dose of 10 mg/kg with all mice alive and showing no end organ toxicities (TABLE 5). […]

[9] abbreviates: Table 1, 1 µM, 0-120 minutes, read-out: Human T½.

The text below walks through data of patent publication US20230066517A1, “Phospholipid Ether Conjugates as Cancer-Targeting Drug Vehicles” (Cellectar Biosciences, Inc., priority 2019, published 2023).

Starred links: 1 amine or outer side, 2 acyl side, 3 side chain; linkers in the order of their positions; H or OH if unused. Non-standard residues stand in square brackets, D forms with d. Residues, ends and D or L forms follow the SMILES beside them. *: point of attachment. X1 = C[N+](C)(C)CCOP(=O)([O-])OCCCCCCCCCCCCCCCCCCc1ccc(C(=O)*)cc1; Dolaproine = CO[C@@H]([C@@H]1CCCN1)[C@@H](C)C(=O)O; Dil = CC[C@H](C)[C@H](NC)[C@@H](CC(=O)O)OC; PABC = O=C(OCc1ccc(N[*:1])cc1)[*:2]; X2 = C[C@@H](N*)[C@@H](O)c1ccccc1; Cit = NC(=O)NCCC[C@H](N)C(=O)O; NMeV = CN[C@H](C(=O)O)C(C)C

One may read the IC50 as the concentration needed to halve the response being measured. Read a high IC50 as weaker potency.

As for `C=C(c1ccc(OC)c(NP(=O)(O)OP(=O)(O)OCCNC(=O)c2ccc(CCCCCCCCCCCCCCCCCCOP(=O)([O-])OCC[N+](C)(C)C)cc2)c1)c1cc(C)nc2ccccc12` [CLR2013], the half-life at 1 µM in data set [1] (Table 3, read-out: Mouse t½) was 1.28 h; in data set [2] (Table 3, read-out: Human t½), more than 6.67 h.
As to `COC(=O)[C@@H]1[C@H](O)[C@]2(O)c3c(OC)cc(OCCCCNC(=O)OCC(C)(C)SSCCCCCCCCCCCCCCCCCCOP(=O)([O-])OCC[N+](C)(C)C)cc3O[C@]2(c2ccc(OC)cc2)[C@H]1c1ccccc1` [CLR1800095], the “stability in mouse plasma (in words)” value in data set [1] is recorded as “some instability”. For the same molecule, the half-life at 1 µM in data set [1] (Table 4, read-out: Mouse t½) was 3.32 h; in data set [2] (Table 4, read-out: Human t½), more than 6.67 h.
For `C=C(c1ccc(OC)c(NC(=O)OCc2ccc(OP(=O)(O)OP(=O)(O)OCCNC(=O)c3ccc(CCCCCCCCCCCCCCCCCCOP(=O)([O-])OCC[N+](C)(C)C)cc3)cc2)c1)c1cc(C)nc2ccccc12` [CLR2000045], in data set [3] (1 mg/kg IV 3 times per week for 2 weeks (highest dose)), the “eradication of the tumor” value is reported as approximately 100%. Besides, the “tumor volume compared to vehicle control” value in data set [3] (1 mg/kg IV, 2 highest dose groups (2x and 3x per week for 2 weeks), p≤0.05 and p≤0.01) was “statistically significant reduction in tumor volume”. The “survival (Kaplan-Meier)” value was “significant increase in survival” in data set [3] (1 mg/kg three times per week for 2 weeks, vs vehicle (p≤0.001) and 1 time per week (p≤0.05)); “significant increase” in data set [3] (1 mg/kg twice a week for two weeks, vs vehicle (p≤0.05)). For the same molecule, the “tolerability as measured by body weight loss” value in data set [3] (two highest doses) is “well tolerated”. Also, in data set [4], the “uptake in normal tissue” value is “minimal uptake”. Further, the half-life at 1 µM in data set [1] (Table 3, read-out: Mouse t½) was more than 6.67 h; in data set [2] (Table 3, read-out: Human t½), more than 6.67 h. The IC50 in data set [5] stood at 76 nM; in data set [6], 51 nM. Besides, the “uptake in tumor cells” value in data set [7] (1 µM) is given as “significant uptake”. Further, the “release of the warhead” value in data set [7] (at each timepoint) is recorded as “approximately 50%”. In addition, the “uptake and release of payload, share of exposed drug” value in data set [7] (tumor cell lines) was 20-40%.
As for `CC[C@H](C)[C@@H]([C@@H](CC(=O)N1CCC[C@H]1[C@H](OC)[C@@H](C)C(=O)N[C@H](C)[C@@H](O)c1ccccc1)OC)N(C)C(=O)[C@@H](NC(=O)[C@H](C(C)C)N(C)C(=O)OCc1ccc(NC(=O)[C@H](CCCNC(N)=O)NC(=O)[C@@H](NC(=O)c2ccc(CCCCCCCCCCCCCCCCCCOP(=O)([O-])OCC[N+](C)(C)C)cc2)C(C)C)cc1)C(C)C` [PDC-SM3] (X1-V[Cit][PABC][NMeV]V[Dil][Dolaproine]-X2), the half-life at 1 µM was more than 6.67 h in data set [1] (Table 1, 1 µM, 0-120 minutes, read-out: Mouse T½) and more than 6.67 h in data set [2] (setting [9]).
`CC(C)[N+](C)(CCOC(=O)C1c2ccccc2Oc2ccccc21)C(C)C` [Propantheline, reference compound]: the half-life at 1 µM amounted to 0.95 h in data set [1] (Table 3, read-out: Mouse t½); 0.9 h in data set [2] (setting [9]); 1.28 h in data set [2] (Table 3, read-out: Human t½); 0.9 h in data set [2] (Table 4, read-out: Human t½).
In the case of `CC(=O)O[C@@]12CO[C@@H]1C[C@H](O)[C@@]1(C)C(=O)[C@H](O)C3=C(C)[C@@H](OC(=O)[C@H](O)[C@@H](NC(=O)OC(C)(C)C)c4ccccc4)C[C@@](O)([C@@H](OC(=O)c4ccccc4)[C@H]21)C3(C)C` [docetaxel], in data set [8], the “deaths in treatment arm” value is “multiple deaths starting at day 18 and ending at day 26”.
